Laboratory results published in FireProtDB (doi:10.1046/j.1432-1327.1999.00918.x).
Several values for one entry are separate records, joined by “and”; a condition that tells them apart may be missing. Equal values may be shown once.

B1: Lysozyme C, P61626 (parent)
chain: MKALIVLGLVLLSVTVQGKVFERCELARTLKRLGMDGYRGISLANWMCLAKWESGYNTRATNYNAGDRSTDYGIFQINSRYWCNDGKTPGAVNACHLSCSALLQDNIADAVACAKRVVRDPQGIRAWVAWRNRCQNRDVRQYVQGCGV

Variants of: B1
Details: Homo sapiens, Thermal, DSC, glycine 0.05 M, reversible: yes, structure 1LZ1, whole UniProt chain shown

Variant | Tm (pH 2.5) | unfolding enthalpy (calorimetric) (pH 2.5) | unfolding enthalpy (van 't Hoff) (pH 2.5) | ddG of mutation (higher = less stable) (pH 2.7, 64.9 °C) | Tm (pH 2.7) | change of melting temperature, mutant - wild type (higher = more stable) (pH 2.7) | heat capacity change of unfolding (pH 2.7) | unfolding enthalpy (calorimetric) (pH 2.7) | Tm (pH 2.95) | unfolding enthalpy (calorimetric) (pH 2.95) | unfolding enthalpy (van 't Hoff) (pH 2.95) | Tm (pH 3.22) | unfolding enthalpy (calorimetric) (pH 3.22) | unfolding enthalpy (van 't Hoff) (pH 3.22) | Tm (pH 2.58) | unfolding enthalpy (calorimetric) (pH 2.58) | unfolding enthalpy (van 't Hoff) (pH 2.58) | Tm (pH 2.77) | unfolding enthalpy (calorimetric) (pH 2.77) | unfolding enthalpy (van 't Hoff) (pH 2.77)
K19M | 61.7 °C | 88.4 kcal/mol | 90.1 kcal/mol | 0.12 kcal/mol | 64.4 °C and 64.9 °C | -0.5 °C | 1.03 kcal/mol/K | 91.8 kcal/mol | 69.1 °C | 95.4 kcal/mol | 97.5 kcal/mol | 70.1 °C | 98.5 kcal/mol | 106 kcal/mol |  |  |  |  |  | 
K19A |  |  |  |  | 62.7 °C | -2.2 °C | 1.6 kcal/mol/K | 96.8 kcal/mol |  |  |  |  |  |  | 60.9 °C | 90.6 kcal/mol | 98.7 kcal/mol | 63.7 °C | 95.1 kcal/mol | 99.4 kcal/mol
